Experimental data taken from patent US20250043002A1.

Columns and labels:
[1] = biological target: hPD-L1-mFc: hPD-L1 extracellular domain (amino acids F19-T239) expressed with the Fc portion of mouse IgG2a at the C-terminus (human; mouse) (UniProt Q9NZQ7); assay: blocking ELISA, 0.7 nM hPD-L1-mFc on plate-coated hPD1-hFc
[2] = biological target: human PD-L1 expressed with a C-terminal myc-myc-hexahistidine tag (hPD-L1.mmH) (human); assay: SPR Biacore 25 C, antibody captured by anti-hFc, hPD-L1.mmH injected
[3] = biological target: human CD28 expressed with a C-terminal murine Fc tag (hCD28.mFc) (human); assay: SPR Biacore 25 C, hCD28.mFc captured by anti-mFc, antibody injected

Chain of hPD-L1-mFc: hPD-L1 extracellular domain (amino acids F19-T239) expressed with the Fc portion of mouse IgG2a at the C-terminus (human; mouse) (Q9NZQ7 19-239 limits assumed): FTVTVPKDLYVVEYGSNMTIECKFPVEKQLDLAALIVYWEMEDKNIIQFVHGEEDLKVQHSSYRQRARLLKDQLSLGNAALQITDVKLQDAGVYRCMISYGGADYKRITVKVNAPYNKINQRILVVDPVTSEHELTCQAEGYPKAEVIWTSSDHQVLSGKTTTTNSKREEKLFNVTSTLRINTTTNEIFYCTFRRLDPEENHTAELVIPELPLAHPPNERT
Chain of human PD-L1 expressed with a C-terminal myc-myc-hexahistidine tag (hPD-L1.mmH) (human) (chain, as listed by the source limits assumed): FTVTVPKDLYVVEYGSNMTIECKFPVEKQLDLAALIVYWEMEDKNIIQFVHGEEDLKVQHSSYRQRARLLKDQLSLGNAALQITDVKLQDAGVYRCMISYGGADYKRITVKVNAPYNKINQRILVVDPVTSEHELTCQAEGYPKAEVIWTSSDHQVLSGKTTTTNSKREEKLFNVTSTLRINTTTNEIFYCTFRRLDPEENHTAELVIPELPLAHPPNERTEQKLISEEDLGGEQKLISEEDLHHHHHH

% Blocking at 100 nM mAb [1] [%] | 30 nM hPD-L1.mmH Bind (RU) [2] [RU] | 90 nM mAb Bind (RU) [3] [RU] | Substance
4 | – | – | Isotype control 3 (antibody)
1 | – | – | Isotype control 1 (antibody)
– | 0.5 | -4.3 | Isotype Control (antibody)
1 | – | – | Isotype control 2 (antibody)
